# From PMC7921410, “Structure of mammalian Mediator complex reveals Tail module architecture and interaction with a conserved core” (Nature Communications, 2021)
# T1: MED15 (mouse (Mus musculus; endogenous in CH12), UniProt Q924H2 1-789)
# T1 construct: MED15, Mus musculus, endogenous lower Tail subunit of Mediator; only the C-terminal portion (from residue 620) is seen in the map; source: endogenous, CH12 mouse B lymphoma nuclear extract; immunopurified as part of Mediator (FLAG M2 agarose, FLAG peptide elution)
# T1 sequence (looked up): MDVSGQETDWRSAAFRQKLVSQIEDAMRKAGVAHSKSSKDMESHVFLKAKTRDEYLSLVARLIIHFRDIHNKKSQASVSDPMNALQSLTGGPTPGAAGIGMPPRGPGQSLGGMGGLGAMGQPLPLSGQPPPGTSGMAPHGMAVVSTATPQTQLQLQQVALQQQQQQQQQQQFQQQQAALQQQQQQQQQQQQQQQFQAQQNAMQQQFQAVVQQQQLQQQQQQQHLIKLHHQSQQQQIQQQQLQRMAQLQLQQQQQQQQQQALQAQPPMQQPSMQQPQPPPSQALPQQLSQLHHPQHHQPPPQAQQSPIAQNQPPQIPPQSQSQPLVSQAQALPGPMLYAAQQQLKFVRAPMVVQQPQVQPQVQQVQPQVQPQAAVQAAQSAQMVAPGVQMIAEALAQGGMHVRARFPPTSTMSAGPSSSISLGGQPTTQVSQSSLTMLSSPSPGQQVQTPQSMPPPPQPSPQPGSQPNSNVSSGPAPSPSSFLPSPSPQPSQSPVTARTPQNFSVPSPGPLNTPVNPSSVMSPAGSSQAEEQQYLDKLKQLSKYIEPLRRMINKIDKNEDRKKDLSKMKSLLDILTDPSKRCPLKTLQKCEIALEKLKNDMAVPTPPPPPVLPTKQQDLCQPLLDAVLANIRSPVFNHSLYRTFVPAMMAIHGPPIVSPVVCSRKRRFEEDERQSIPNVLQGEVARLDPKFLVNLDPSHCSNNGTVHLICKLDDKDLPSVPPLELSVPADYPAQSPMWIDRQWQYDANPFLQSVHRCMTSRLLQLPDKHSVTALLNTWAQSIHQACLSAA
# T2: MED16 (mouse (Mus musculus; endogenous in CH12), UniProt Q6PGF3 1-828)
# T2 construct: MED16, Mus musculus, endogenous lower Tail subunit of Mediator; source: endogenous, CH12 mouse B lymphoma nuclear extract; immunopurified as part of Mediator (FLAG M2 agarose, FLAG peptide elution)
# T2 sequence (looked up): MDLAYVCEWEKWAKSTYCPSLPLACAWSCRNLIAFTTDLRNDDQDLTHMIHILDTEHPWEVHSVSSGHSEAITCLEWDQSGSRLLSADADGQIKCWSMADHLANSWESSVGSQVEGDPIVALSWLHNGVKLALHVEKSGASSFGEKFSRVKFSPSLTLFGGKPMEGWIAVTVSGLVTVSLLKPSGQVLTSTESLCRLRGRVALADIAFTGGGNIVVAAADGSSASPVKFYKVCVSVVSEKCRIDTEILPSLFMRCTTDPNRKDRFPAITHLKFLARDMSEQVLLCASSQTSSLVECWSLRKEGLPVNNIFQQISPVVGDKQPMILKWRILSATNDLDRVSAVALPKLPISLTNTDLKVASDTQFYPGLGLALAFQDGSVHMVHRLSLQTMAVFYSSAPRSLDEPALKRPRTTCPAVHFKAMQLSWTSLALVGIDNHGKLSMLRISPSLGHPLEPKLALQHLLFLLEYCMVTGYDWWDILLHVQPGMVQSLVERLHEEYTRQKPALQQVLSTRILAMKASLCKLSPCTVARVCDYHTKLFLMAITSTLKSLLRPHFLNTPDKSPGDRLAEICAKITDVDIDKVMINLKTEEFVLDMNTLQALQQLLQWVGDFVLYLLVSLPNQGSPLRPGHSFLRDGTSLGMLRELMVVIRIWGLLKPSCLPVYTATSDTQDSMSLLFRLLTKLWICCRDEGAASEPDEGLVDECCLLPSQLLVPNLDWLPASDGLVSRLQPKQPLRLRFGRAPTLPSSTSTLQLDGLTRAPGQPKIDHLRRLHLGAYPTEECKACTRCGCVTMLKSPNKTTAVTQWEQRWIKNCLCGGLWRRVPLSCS
# T3: MED17 (mouse (Mus musculus; endogenous in CH12), UniProt Q8VCD5 1-649)
# T3 construct: MED17, Mus musculus, endogenous Head module scaffold subunit of Mediator; source: endogenous, CH12 mouse B lymphoma nuclear extract; immunopurified as part of Mediator (FLAG M2 agarose, FLAG peptide elution)
# T3 sequence (looked up): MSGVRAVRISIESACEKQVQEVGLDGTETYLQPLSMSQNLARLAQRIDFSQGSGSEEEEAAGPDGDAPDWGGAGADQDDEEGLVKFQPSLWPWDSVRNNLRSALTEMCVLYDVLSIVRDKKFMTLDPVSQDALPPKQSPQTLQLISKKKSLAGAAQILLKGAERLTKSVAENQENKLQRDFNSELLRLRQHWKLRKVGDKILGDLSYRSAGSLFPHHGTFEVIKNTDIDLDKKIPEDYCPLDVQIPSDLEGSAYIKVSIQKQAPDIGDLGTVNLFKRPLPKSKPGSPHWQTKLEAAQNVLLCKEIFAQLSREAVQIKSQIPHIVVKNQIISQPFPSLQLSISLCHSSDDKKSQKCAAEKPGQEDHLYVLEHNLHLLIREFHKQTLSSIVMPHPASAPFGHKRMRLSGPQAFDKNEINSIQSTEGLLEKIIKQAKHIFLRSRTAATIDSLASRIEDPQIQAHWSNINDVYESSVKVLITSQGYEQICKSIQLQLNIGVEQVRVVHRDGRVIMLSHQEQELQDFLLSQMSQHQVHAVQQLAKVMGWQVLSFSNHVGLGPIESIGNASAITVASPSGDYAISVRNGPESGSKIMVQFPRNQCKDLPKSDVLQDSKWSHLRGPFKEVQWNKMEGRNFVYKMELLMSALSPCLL
# B1: MED24 (natural protein, mouse (Mus musculus; endogenous in CH12), UniProt Q99K74 1-987, looked up)
# chain: MKVVNLKQAILQAWKERWSDYQWAINMKKFFPKGATWDILNLAEALLEQAMIGPSPNPLILSYLKYAISSQMVSCSSVLTAISKFDDFSRDLCVQALLDIMDMFCDRLSCHGKAEECIGLCRALLSALHWLLRCTAASAERLQEGLEAGTPAPGEKQLALCLQCLEKTLSSTKNRALLHIAKLEEASSWTAIEHSLLKLGEILANLSNPQLRSQAERCGTLIRSIPSMLSVHSEQLHKTGFPTIHALILLEGTMNLTGEMQPLVEQLMMVKRMQHIPTPLFVLEIWKACFVGLIESPEGTQELKWTAFTYLKIPQVLVKLKKYFHGEKDFTEDVNCAFEFLLKLTPLLDKADQRCNCDCTNFLLQECNKQGLLSEVNFASLVGKRTADRDPQLKSSENANIQPNPGLILRAEPTVTNILKTMDADHSKSPEGLLGVLGHMLSGKSLDLLLAAAAATGKLKSFARKFINLNEFTTHGSGESTKTASVRALLFDISFLMLCHVAQTYGSEVILSESSSGEEVPFFETWMQTCMPEEGKILNPDHPCFRPDSTKVESLVALLNNSSEMKLVQMKWHEACLSISAAILEILNAWENGVLAFESIQKITDNIKGKVCSLAVCAVAWLVAHVRMLGLDEREKSLQMIRQLAGPLYSENTLQFYNERVVIMNSILEHMCADVLQQTATQIKFPSTGVDTMPYWNLLPPKRPIKEVLTDIFAKVLEKGWVDSRSIHILDTLLHMGGVYWFCNNLIKELLKETRKEHTLRAVQLLYSIFCLDMQQVTLVLLGHILPGLLTDSSKWHSLMDPPGTALAKLAVWCALSSYSSHKGQASSRQKKRHREDIEDYVSLFPVEDMQPSKLMRLLSSSDDDANILSSPTDRSMNSSLSASQLHTVNMRDPLNRVLANLFLLISSILGSRTAGPHTQFVQWFMEECVGCLEQDSRGSILQFMPFTTVSELVKVSAMSSPKVVLAITDLSLPLGRQVAAKAIAAL
# notes: MED24, Mus musculus, endogenous lower Tail subunit of Mediator; source: endogenous, CH12 mouse B lymphoma nuclear extract; immunopurified as part of Mediator (FLAG M2 agarose, FLAG peptide elution)
# B2: MED27 (natural protein, mouse (Mus musculus; endogenous in CH12), UniProt Q9DB40 1-311, looked up)
# chain: MADVLSVGVNLEAFSQAISAIQALRSSVSRVFDCLKDGMRNKETLEGREKAFIANFQDNLHSVNRDLNELERLSNLVGKPSENHPLHNSGLLSLDPVQDKTPLYSQLLQAYKWSNKLQYHAGLASGLLNQQSLKRSANQMGVSAKRRPKAQPTTLVLPPQYVDDVISRIDRMFPEMSIHLSRPNGTSAMLLVTLGKVLKVIVVMRSLFIDRTIVKGYNESVYTEDGKLDIWSKSSYQVFQKVTDHATTALLHYQLPQMPDVVVRSFMTWLRSYIKLFQAPCQRCGKFLQDGLPPTWRDFRTLEAFHDTCRQ
# notes: MED27, Mus musculus, endogenous upper Tail subunit of Mediator; source: endogenous, CH12 mouse B lymphoma nuclear extract; immunopurified as part of Mediator (FLAG M2 agarose, FLAG peptide elution)
# B3: MED4 (natural protein, mouse (Mus musculus; endogenous in CH12), UniProt Q9CQA5 1-270, looked up)
# chain: MAASSSGEKEKERMGGVSGMAGLGSTRERLLSALEDLEVLSRELIEMLAISRNQKLLQLEEENQVLELLIHRDGDFQELMKLALNQGKVHHEMQALEKEVEKRDSDIQQLQKQLKEAEQILATAVYQAKEKLKSIEKARKGAISSEEIIKYAHRISASNAVCAPLTWVPGDPRRPYPTDLEMRSGLLGQMNNPSTSGVNGHLPGDALAAGRLPDVLAPQYPWQSNDMSVNMLPPNHSSDFLLEPPGHNKENEDDVEVMSTDSSSSSSDSD
# notes: MED4, Mus musculus, endogenous Middle module subunit of Mediator; source: endogenous, CH12 mouse B lymphoma nuclear extract; immunopurified as part of Mediator (FLAG M2 agarose, FLAG peptide elution)
# B4: MED29 (natural protein, mouse (Mus musculus; endogenous in CH12), UniProt Q9DB91 1-199, looked up)
# chain: MAAPQPQAAAVSSASGVSGPGSAGGPGPQQQPQPTQLVGSAQSGLLQQQQQDFDPVQRYKMLIPQLKESLQTLMKVAAQNLIQNTNIDNGQKSSDAPLQRFDKCLEEFYALCDQLELCLRLAHECLSQSCDSAKHSPTLVPTATKPDAVQPDSLPYPQYLAVIKAQITCAKDIHTALLDCANKVTGKTTAPSTGPGGSL
# notes: MED29, Mus musculus, endogenous upper Tail subunit of Mediator; source: endogenous, CH12 mouse B lymphoma nuclear extract; immunopurified as part of Mediator (FLAG M2 agarose, FLAG peptide elution)
# Key:
# Test in all cases: cryo-EM structure; endogenous mouse Mediator immunopurified from CH12 nuclear extract through 3×FLAG-MED19 or 3×FLAG-MED25; eluted in 50 mM HEPES pH 7.9, 100 mM KCl, 5% glycerol, 1 mM EDTA, 0.005% NP-40; map at 4.0 Å overall, focused refinement of the MED1 and knob/hook ends (6-10 Å)
# Settings in all cases: both partners purified
# [1] = biological target: T4, MED1 (mouse (Mus musculus; endogenous in CH12), UniProt Q925J9 1-1575)
# T4 construct: MED1, Mus musculus, endogenous Middle module subunit of Mediator; only a partial model of the folded N-terminal portion was built; Partial model only; this part of the map is at about 6-8 Å; also called Mediator subunit MED1; source: endogenous, CH12 mouse B lymphoma nuclear extract; immunopurified as part of Mediator (FLAG M2 agarose, FLAG peptide elution)
# [2] = biological target: T1, MED15
# [3] = biological target: T2, MED16
# [4] = biological target: T3, MED17
# [5] = biological target: B2
# T4 sequence (Q925J9 whole entry): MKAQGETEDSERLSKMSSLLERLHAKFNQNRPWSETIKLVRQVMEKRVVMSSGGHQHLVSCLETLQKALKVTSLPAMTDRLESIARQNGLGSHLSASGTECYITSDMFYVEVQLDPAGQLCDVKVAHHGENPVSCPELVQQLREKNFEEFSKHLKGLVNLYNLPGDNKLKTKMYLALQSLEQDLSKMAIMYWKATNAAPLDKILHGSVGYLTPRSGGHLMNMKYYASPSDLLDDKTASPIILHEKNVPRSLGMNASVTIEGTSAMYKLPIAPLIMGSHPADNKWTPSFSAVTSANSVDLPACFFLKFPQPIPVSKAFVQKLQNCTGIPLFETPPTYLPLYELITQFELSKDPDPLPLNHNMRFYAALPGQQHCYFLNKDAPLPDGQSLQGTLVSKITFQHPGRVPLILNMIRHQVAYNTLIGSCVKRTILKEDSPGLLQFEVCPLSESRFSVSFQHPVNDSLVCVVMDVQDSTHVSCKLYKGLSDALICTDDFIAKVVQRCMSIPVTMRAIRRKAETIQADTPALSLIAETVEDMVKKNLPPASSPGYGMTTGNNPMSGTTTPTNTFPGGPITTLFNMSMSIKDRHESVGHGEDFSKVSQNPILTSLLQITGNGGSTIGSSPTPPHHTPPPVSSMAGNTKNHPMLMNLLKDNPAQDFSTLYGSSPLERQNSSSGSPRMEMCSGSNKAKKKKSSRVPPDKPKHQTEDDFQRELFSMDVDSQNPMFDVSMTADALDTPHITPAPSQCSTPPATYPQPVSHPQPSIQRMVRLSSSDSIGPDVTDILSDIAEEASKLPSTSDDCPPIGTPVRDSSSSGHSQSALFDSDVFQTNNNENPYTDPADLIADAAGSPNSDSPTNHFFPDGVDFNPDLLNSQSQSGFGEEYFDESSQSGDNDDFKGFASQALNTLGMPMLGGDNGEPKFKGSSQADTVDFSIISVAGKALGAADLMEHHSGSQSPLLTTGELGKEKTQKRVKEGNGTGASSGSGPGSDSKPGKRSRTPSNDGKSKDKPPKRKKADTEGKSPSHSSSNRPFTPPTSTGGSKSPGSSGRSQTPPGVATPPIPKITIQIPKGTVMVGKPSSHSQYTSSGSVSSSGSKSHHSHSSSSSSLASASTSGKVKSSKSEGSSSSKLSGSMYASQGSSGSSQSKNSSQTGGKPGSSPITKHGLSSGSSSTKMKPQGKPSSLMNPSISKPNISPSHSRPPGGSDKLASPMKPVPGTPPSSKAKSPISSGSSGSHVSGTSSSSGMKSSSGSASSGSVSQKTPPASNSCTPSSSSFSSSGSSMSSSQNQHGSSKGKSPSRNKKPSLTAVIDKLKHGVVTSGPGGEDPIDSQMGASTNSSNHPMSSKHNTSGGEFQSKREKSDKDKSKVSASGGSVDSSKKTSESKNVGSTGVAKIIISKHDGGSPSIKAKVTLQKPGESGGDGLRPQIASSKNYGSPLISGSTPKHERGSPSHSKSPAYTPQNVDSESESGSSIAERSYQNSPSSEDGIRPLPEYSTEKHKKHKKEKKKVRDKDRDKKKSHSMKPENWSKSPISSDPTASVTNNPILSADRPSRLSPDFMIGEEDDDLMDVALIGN
binding result [1],binding result [2],binding result [3],binding result [4],binding result [5],Binder
binds,–,–,–,–,B1
–,binds,binds,binds,–,B2
binds,–,–,–,–,B3
–,binds,binds,–,binds,B4
